From patent EP0251446B1, “Non-human Carbonyl hydrolase mutants, DNA sequences and vectors encoding same and hosts transformed with said vectors” (GENENCOR INTERNATIONAL, INC., priority 1986, dated 1988) come the findings set out here.

Holding throughout (assay type): biochemical, B. amyloliquefaciens
Substrate in data set [1]: C[C@H](NC(=O)CCC(=O)O)C(=O)N[C@@H](C)C(=O)N1CCC[C@H]1C(=O)N[C@@H](CCC(=O)O)C(=O)Nc1ccc([N+](=O)[O-])cc1
Briefly: Kinetics of p-nitroanilide substrate hydrolysis, K166. An excerpt: (§1) Wild-type subtilisin was purified from B. subtilis culture supernatants expressing the B. amyloliquefaciens subtilisin gene (Wells, J.A., et al. (1983) Nucleic Acids Res. 11, 7911-7925) as previously described (Estell, D.A., et al. (1985) J. Biol. Chem. 260, 6518-6521). Details of the synthesis of tetrapeptide substrates having the form succinyl-L-AlaL-AlaL-ProL-[X]-p-nitroanilide (where X is the P1 amino acid) are described by DelMar, E.G., et al. (1979) Anal. Biochem. 99, 316-320. Kinetic parameters, Km(M) and kcat-(s-^1) were measured using a modified progress curve analysis (Estell, D.A., et al. (1985) J. Biol. Chem. 260, 6518-6521). Briefly, plots of rate versus product concentration were fit to the differential form of the rate equation using a non-linear regression algorithm. Errors in kcat and Km for all values reported are less than five percent. The various substrates in Table VIII are ranged in order of decreasing hydrophobicity. Nozaki, Y. (1971), J. Biol. Chem. 246, 2211-2217; Tanford C. (1978) Science 200, 1012).
(§2) The construction of subtilisin mutants containing the substitution of the ionic amino acids Asp, Asn, Gln, Lys and Ang are disclosed in EPO Publication No. 0130756. The present example describes the construction of the mutant subtilisin containing Glu at position 166 (E166) and presents substrate specificity data on these mutants. Further data on position 166 and 156 single and double mutants is presented infra.
(§3) Each of these mutants was analyzed with the tetrapeptide substrates, succinyl-L-AlaL-AlaProL-X-p-nitroanilide, where X was Phe, Ala and Glu.
(§4) K166 is a common replacement amino acid in the 156/166 mutants described herein. The replacement of Lys for GIy166 was achieved by using the synthetic DNA cassette at the top right of Figure 21 which contained the triplet AAA for NNN. This produced fragment 2 with Lys substituting for GIy166.
(§5) These mutants, the single mutant K166, and the S156 and Q156 mutants of Example 8 were analyzed for substitute specificity against synthetic polypeptides containing Phe or Glu as the P-1 substrate residue.

Substrate in data set [2]: C[C@H](NC(=O)CCC(=O)O)C(=O)N[C@@H](C)C(=O)N1CCC[C@H]1C(=O)N[C@@H](Cc1ccccc1)C(=O)Nc1ccc([N+](=O)[O-])cc1
The description is as above. The settings on record: K166.
Description: as §1, §2, §3, §4, §5

Substrate in data set [3]: C[C@H](NC(=O)CCC(=O)O)C(=O)N[C@@H](C)C(=O)N1CCC[C@H]1C(=O)N[C@@H](CCCCN)C(=O)Nc1ccc([N+](=O)[O-])cc1
Described as above. Particulars: other: Table XIV, 156 Glu / 166 Lys; value in parentheses; synthetic substrate with label as P-1 amino acid.

Substrate in data set [4]: C[C@H](NC(=O)CCC(=O)O)C(=O)N[C@@H](C)C(=O)N1CCC[C@H]1C(=O)N[C@@H](CCC(N)=O)C(=O)Nc1ccc([N+](=O)[O-])cc1
The data set is described as above. The settings on record: other: Table XIV, 156 Glu / 166 Lys; value in parentheses; synthetic substrate with label as P-1 amino acid.

Substrate in data set [5]: CSCC[C@H](NC(=O)[C@@H]1CCCN1C(=O)[C@H](C)NC(=O)[C@H](C)NC(=O)CCC(=O)O)C(=O)Nc1ccc([N+](=O)[O-])cc1
The data set is described as above. Particulars: other: Table XIV, 156 Glu / 166 Lys; value in parentheses; synthetic substrate with label as P-1 amino acid.

Substrate in data set [6]: C[C@H](NC(=O)CCC(=O)O)C(=O)N[C@@H](C)C(=O)N1CCC[C@H]1C(=O)N[C@@H](CCCCN)C(=O)Nc1ccc([N+](=O)[O-])cc1
Briefly: Kinetics of p-nitroanilide substrate hydrolysis, S156/K166. The settings on record: other: Table XIV, 156 Ser / 166 Lys; value in parentheses; synthetic substrate with label as P-1 amino acid.
Description: as §1
(§6) The multiple mutants were produced by combining fragments 1, 2 and 3 as described in Example 8. The mutants Q156/K166 and S156/K166 were selectively generated by differential phosphorylation as described. Alternatively, the double 156/166 mutants, c.f. Q156/K166 and S156/K166, were prepared by ligation of the 4.6kb Sacl-BamHI fragment from the relevant p156 plasmid containing the 0.6kb Sacl-BamHI fragment from the relevant p166 plasmid.
as §5
(§7) To isolate the contribution of electrostatics to substrate specificity from other chemical binding forces, these various single and double mutants were analyzed for their ability to bind and cleave synthetic substrates containing Glu, Gln, Met and Lys as the P-1 substrate amino acid. This permitted comparisons between side-chains that were more sterically similar but differed in charge (e.g., Glu versus Gln, Lys versus Met). Similarly, mutant enzymes were assayed against homologous P-1 substrates that were most sterically similar but differed in charge (Table XIV).

Substrate in data set [7]: C[C@H](NC(=O)CCC(=O)O)C(=O)N[C@@H](C)C(=O)N1CCC[C@H]1C(=O)N[C@@H](CCC(N)=O)C(=O)Nc1ccc([N+](=O)[O-])cc1
Described as above. The settings on record: other: Table XIV, 156 Ser / 166 Lys; value in parentheses; synthetic substrate with label as P-1 amino acid.
Description: as §1, §6, §5, §7

Substrate in data set [8]: C[C@H](NC(=O)CCC(=O)O)C(=O)N[C@@H](C)C(=O)N1CCC[C@H]1C(=O)N[C@@H](CCC(=O)O)C(=O)Nc1ccc([N+](=O)[O-])cc1
Described as above.
Description: as §1, §6, §5, §7

Substrate in data set [9]: CSCC[C@H](NC(=O)[C@@H]1CCCN1C(=O)[C@H](C)NC(=O)[C@H](C)NC(=O)CCC(=O)O)C(=O)Nc1ccc([N+](=O)[O-])cc1
The data set is described as above. Particulars: other: Table XIV, 156 Ser / 166 Lys; value in parentheses; synthetic substrate with label as P-1 amino acid.
Description: as §1, §6, §5, §7

Substrate in data set [10]: C[C@H](NC(=O)CCC(=O)O)C(=O)N[C@@H](C)C(=O)N1CCC[C@H]1C(=O)N[C@@H](Cc1ccccc1)C(=O)Nc1ccc([N+](=O)[O-])cc1
The description is as above. Particulars: other: Table XIII, S156/K166; synthetic substrate with label as P-1 residue.
Description: as §1, §6, §5, §7

Substrate in data set [11]: C[C@H](NC(=O)CCC(=O)O)C(=O)N[C@@H](C)C(=O)N1CCC[C@H]1C(=O)N[C@@H](CCCCN)C(=O)Nc1ccc([N+](=O)[O-])cc1
In words: Kinetics of p-nitroanilide substrate hydrolysis, Q156/K166. Particulars: other: Table XIV, 156 Gln / 166 Lys; value in parentheses; synthetic substrate with label as P-1 amino acid.
Description: as §1, §6, §5, §7

Substrate in data set [12]: C[C@H](NC(=O)CCC(=O)O)C(=O)N[C@@H](C)C(=O)N1CCC[C@H]1C(=O)N[C@@H](CCC(N)=O)C(=O)Nc1ccc([N+](=O)[O-])cc1
The data set is described as above. Particulars: other: Table XIV, 156 Gln / 166 Lys; value in parentheses; synthetic substrate with label as P-1 amino acid.
Description: as §1, §6, §5, §7

Substrate in data set [13]: C[C@H](NC(=O)CCC(=O)O)C(=O)N[C@@H](C)C(=O)N1CCC[C@H]1C(=O)N[C@@H](CCC(=O)O)C(=O)Nc1ccc([N+](=O)[O-])cc1
The data set is described as above.
Description: as §1, §6, §5, §7

Substrate in data set [14]: CSCC[C@H](NC(=O)[C@@H]1CCCN1C(=O)[C@H](C)NC(=O)[C@H](C)NC(=O)CCC(=O)O)C(=O)Nc1ccc([N+](=O)[O-])cc1
Described as above. Particulars: other: Table XIV, 156 Gln / 166 Lys; value in parentheses; synthetic substrate with label as P-1 amino acid.
Description: as §1, §6, §5, §7

Substrate in data set [15]: C[C@H](NC(=O)CCC(=O)O)C(=O)N[C@@H](C)C(=O)N1CCC[C@H]1C(=O)N[C@@H](Cc1ccccc1)C(=O)Nc1ccc([N+](=O)[O-])cc1
The description is as above. Particulars: other: Table XIII, Q156/K166; synthetic substrate with label as P-1 residue.
Description: as §1, §6, §5, §7

The mark [16] stands for this setting: other: Table XIII, K166, synthetic substrate with label as P-1 residue.
The mark [17] stands for this setting: other: Table XIII, synthetic substrate with label as P-1 residue.
Setting [18] is: other: Table XIII, S156/K166, synthetic substrate with label as P-1 residue.
[19] abbreviates: other: Table XIII, Q156/K166, synthetic substrate with label as P-1 residue.

B1: B. amyloliquefaciens subtilisin variant K166 (Gly166 to Lys) (Bacillus amyloliquefaciens; G273K) (protein)
chain: AQSVPYGVSQIKAPALHSQGYTGSNVKVAVIDSGIDSSHPDLKVAGGASMVPSETNPFQDNNSHGTHVAGTVAALNNSIGVLGVAPSASLYAVKVLGADGSGQYSWIINGIEWAIANNMDVINMSLGGPSGSAALKAAVDKAVASGVVVVAAAGNEGTSGSSSTVKYPGKYPSVIAVGAVDSSNQRASFSSVGPELDVMAPGVSIQSTLPGNKYGAYNGTSMASPHVAGAAALILSKHPNWTNTQVRSSLENTTTKLGDSFYYGKGLINVQAAAQ
notes: at various amino acid residues within the mature form of the subtilisin molecule; made in house; host or cells: Bacillus subtilis BG2036
Consider B1, for which the Km in [1] (setting [16]) was 56 µM; in data set [1] (other: Table XIV, 156 Glu / 166 Lys, value in parentheses, synthetic substrate with label as P-1 amino acid) it was 56.2 µM; in [2] (setting [17]), 40 µM; in data set [2] (other: Table XIX), 37 µM; in data set [3], 1170 µM; in [4] it was 132 µM. In addition, the Km in data set [5] was 35.5 µM. Also, the results for the kcat in data set [1] (setting [16]), in data set [2] (setting [17]) and in [2] (other: Table XIX) were 0.70 s-^1, 20.00 s-^1 and 21 s-^1, respectively. Further, the results for the kcat/Km in data set [1] (setting [16]) and in data set [2] (setting [17]) were 12000 M⁻¹ s⁻¹ and 520000 M⁻¹ s⁻¹, respectively.

B2: B. amyloliquefaciens subtilisin variant S156/K166 (Bacillus amyloliquefaciens; E263S/G273K) (protein)
chain: AQSVPYGVSQIKAPALHSQGYTGSNVKVAVIDSGIDSSHPDLKVAGGASMVPSETNPFQDNNSHGTHVAGTVAALNNSIGVLGVAPSASLYAVKVLGADGSGQYSWIINGIEWAIANNMDVINMSLGGPSGSAALKAAVDKAVASGVVVVAAAGNSGTSGSSSTVKYPGKYPSVIAVGAVDSSNQRASFSSVGPELDVMAPGVSIQSTLPGNKYGAYNGTSMASPHVAGAAALILSKHPNWTNTQVRSSLENTTTKLGDSFYYGKGLINVQAAAQ
notes: at various amino acid residues within the mature form of the subtilisin molecule; made in house
Consider B2, for which the Km in [6] was determined as 1450 µM; in data set [7], 115 µM; in [8] (setting [18]) it was 39 µM; in data set [8] (other: Table XIV, 156 Ser / 166 Lys, value in parentheses, synthetic substrate with label as P-1 amino acid) it was 39.8 µM; in data set [9] it was 12.6 µM; in data set [10] it was 18 µM. In addition, the kcat in data set [8] (setting [18]) came to 0.60 s-^1; in [10], 30.00 s-^1. Besides, the kcat/Km amounted to 16000 M⁻¹ s⁻¹ in [8] (setting [18]) and 1.6e+06 M⁻¹ s⁻¹ in data set [10].

B3: B. amyloliquefaciens subtilisin variant Q156/K166 (Bacillus amyloliquefaciens; E263Q/G273K) (protein)
chain: AQSVPYGVSQIKAPALHSQGYTGSNVKVAVIDSGIDSSHPDLKVAGGASMVPSETNPFQDNNSHGTHVAGTVAALNNSIGVLGVAPSASLYAVKVLGADGSGQYSWIINGIEWAIANNMDVINMSLGGPSGSAALKAAVDKAVASGVVVVAAAGNQGTSGSSSTVKYPGKYPSVIAVGAVDSSNQRASFSSVGPELDVMAPGVSIQSTLPGNKYGAYNGTSMASPHVAGAAALILSKHPNWTNTQVRSSLENTTTKLGDSFYYGKGLINVQAAAQ
notes: as for B2
For the protein B3, the Km in data set [11] came to 1780 µM; in data set [12], 209 µM; in [13] (setting [19]), 31 µM; in data set [13] (other: Table XIV, 156 Gln / 166 Lys, value in parentheses, synthetic substrate with label as P-1 amino acid), 31.6 µM; in [14], 20.9 µM; in [15], 19 µM. For the same protein, the kcat in [13] (setting [19]) amounted to 1.60 s-^1; in [15] it was 30.00 s-^1. In addition, the specificity constant (kcat/Km) was 50000 M⁻¹ s⁻¹ in [13] (setting [19]) and 1.6e+06 M⁻¹ s⁻¹ in data set [15].
